Measured values reported in article PMC10397247.

T1: 4H348-bA
T1 chain: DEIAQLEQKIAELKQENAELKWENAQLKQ

T2: 4H477-bA
T2 chain: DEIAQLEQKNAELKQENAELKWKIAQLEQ

T3: 4H3855-bN
T3 chain: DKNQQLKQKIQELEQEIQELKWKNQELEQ

T4: 4H492-bA
T4 chain: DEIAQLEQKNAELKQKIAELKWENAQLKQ

T5: O11-bA
T5 chain: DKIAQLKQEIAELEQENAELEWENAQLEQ

T6: 4H40-bA
T6 chain: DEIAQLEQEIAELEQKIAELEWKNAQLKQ

T7: 4H2915-bA
T7 chain: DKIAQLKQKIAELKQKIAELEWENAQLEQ

T8: 4H3277-bA
T8 chain: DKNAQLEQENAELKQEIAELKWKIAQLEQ

T9: 4H3057-bA
T9 chain: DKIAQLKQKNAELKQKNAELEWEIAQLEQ

T10: 4H741-bA
T10 chain: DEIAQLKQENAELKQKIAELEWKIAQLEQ

T11: 4H319-bA
T11 chain: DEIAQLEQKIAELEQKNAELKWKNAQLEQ

T12: 4H3601-bH
T12 chain: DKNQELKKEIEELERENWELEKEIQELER

T13: 4H3907-bH
T13 chain: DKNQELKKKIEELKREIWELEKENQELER

T14: 4H3592-bH
T14 chain: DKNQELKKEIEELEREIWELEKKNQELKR

T15: 4H4038-bH
T15 chain: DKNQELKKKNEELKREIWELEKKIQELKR

T16: 4H918-bA
T16 chain: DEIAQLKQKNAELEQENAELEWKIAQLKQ

T17: 4H968-bA
T17 chain: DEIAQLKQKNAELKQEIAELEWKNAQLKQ

T18: 4H953-bA
T18 chain: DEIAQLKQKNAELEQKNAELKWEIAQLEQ

T19: 4H855-bA
T19 chain: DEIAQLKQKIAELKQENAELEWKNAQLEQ


What was measured:
Assay in all cases: two-hybrid library CCNG1;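 note: natural log of median RNA to DNA barcode read ratio; higher means stronger binding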
4H348-bA = biological target: T1, 4H348-bA
4H477-bA = biological target: T2, 4H477-bA
4H3855-bN = biological target: T3, 4H3855-bN
4H492-bA = biological target: T4, 4H492-bA
O11-bA = biological target: T5, O11-bA
4H40-bA = biological target: T6, 4H40-bA
4H2915-bA = biological target: T7, 4H2915-bA
4H3277-bA = biological target: T8, 4H3277-bA
4H3057-bA = biological target: T9, 4H3057-bA
4H741-bA = biological target: T10, 4H741-bA
4H319-bA = biological target: T11, 4H319-bA
4H3601-bH = biological target: T12, 4H3601-bH
4H3907-bH = biological target: T13, 4H3907-bH
4H3592-bH = biological target: T14, 4H3592-bH
4H4038-bH = biological target: T15, 4H4038-bH
4H918-bA = biological target: T16, 4H918-bA
4H968-bA = biological target: T17, 4H968-bA
4H953-bA = biological target: T18, 4H953-bA
4H855-bA = biological target: T19, 4H855-bA

interaction score (4H348-bA) | interaction score (4H477-bA) | interaction score (4H3855-bN) | interaction score (4H492-bA) | interaction score (O11-bA) | interaction score (4H40-bA) | interaction score (4H2915-bA) | interaction score (4H3277-bA) | interaction score (4H3057-bA) | interaction score (4H741-bA) | interaction score (4H319-bA) | interaction score (4H3601-bH) | interaction score (4H3907-bH) | interaction score (4H3592-bH) | interaction score (4H4038-bH) | interaction score (4H918-bA) | interaction score (4H968-bA) | interaction score (4H953-bA) | interaction score (4H855-bA) | Binder
-1.42 | -1.05 | 0.188 | -1.03 | 0.236 | 1.35 | 0.656 | -1.17 | -0.856 | -0.66 | 1.12 |  |  |  |  |  |  |  |  | DKIAQLKQKIAELKQKIAELEWENAQLEQ [4H2915-bA]
 |  |  |  |  |  |  |  |  |  |  | -0.0581 | 1.02 | 0.863 | -0.403 |  |  |  |  | DKNQELKKEIEELEREIWELEKKNQELKR [4H3592-bH]
 |  |  |  | -3.09 |  |  |  |  |  |  |  |  |  |  | -1.16 | -0.685 | -1.71 | -0.844 | DEIAQLKQKIAELKQENAELEWKNAQLEQ [4H855-bA]
